Reference: the nanobody polyreactivity screen of Harvey et al. (2022)

Experiment: yeast display, Sf9 membrane polyspecificity reagent, FACS + sequencing; frameworks hold sequencing errors
Method in brief: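 Nanobodies came from a synthetic yeast display library in Saccharomyces cerevisiae BJ5465, induced with galactose for 36–48 hours and stained for 1 hour at 4 °C with 10% biotinylated, detergent-solubilized Sf9 membrane reagent. Cells were enriched on streptavidin microbeads and then FACS-sorted, with low and high (top ~1%) gates set on anti-HA fluorescence for expression and streptavidin fluorescence for reagent binding. Each polyreactivity label reflects the gate a clone came from. Genes were amplified by colony PCR, sequenced by MiSeq 2 × 250 and filtered by CDR length.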

Sequence | polyreactivity (PSR sort gate)
QVQLVESGGGLVQAGGSLRLSCAASGFIFTYYAMGWYRPAPGKERELVATISSGGGSTYYADSVKGRFTISRDNAKNTVYLQMNSLKPEDTAVYYCAASRRITGIRYLNRYEYWGQGTQVTVSS | high polyreactivity
QVQLVESGGGLVQAGGSLRLSCAASGSTFPGNARGWSRQAPGKLRELVAAIRWSGGRTYYADSVKGRFTISRDNAKNTVYLQMNSLNPEDTAVSYCNAVSDRPIPWYYYWGQGTQVTASS | low polyreactivity
QVQLVESGGGLVQAGGSLRLSCAASGGTFARNTMGWYRQAPGKERELVAAITRGGSSTYYADSVKGRFTISRDNAKNTVYLQMNSLKPEDTAVYYCNKSLRWRYPYYGTTGRYDYWGQGTQVTVSS | high polyreactivity
QVQLVESGGGLVQAGGSLRLSCAASGSIFLLYAMGWYRQAPGKERELVARISWSGDNTRYADSVKGRFTISPDNAKNTVYLQMNSLKPEDTAVYYCNAYFFYGQWKGYDYWGQGTQVTVSS | low polyreactivity
QVQLVESGGGLVQAGGSLRLSCAASGIISSVYAMGWYRQAPGKERELVAAITGSGGNTYYADSVKGRFTISRDNAKNTVSLQMNSLKPEDTAVYYCATDDAIISYELVYQYDHWGQGTQVTVSS | low polyreactivity
QVQLVESGGGLVQAGGSLRLSCAASGFIFVKYAMGWYRQAPGKEREFVAAISQSGGNTYYADSVKGRFTISRDNAKNTVYLQMNSLKPEDTAVYYCNAKSYTRRSYYTPTVPGDYWGQGTQVTVSS | low polyreactivity
QVQLVESGGGLVQAGGSLRLSCAASGFTFSSYAMGWYRQAPGKERELVAAITISGGRTYYADSVKGRFTISRDNAKNTVYLQMNSLKPEDTAVYYCAALYVEGQNHYGYWGQGTQVTVSS | high polyreactivity
QVQLVESGGGLVQAGGSLRLSCAASGFTFNSYAMGWYRQAPGKERELVAAITWRGGSTYADSVKGRFTISRDNAKNTVYLQMNSLKPEDTAVYYCNAVSDVKRYDYWGQGTQVTVSS | high polyreactivity
QVQLVESGGGLVQAGGSLRLSCAASGSTFIVYAMGWYRQAPGKERELVAAIRGRGGSTYYADSVKGRFTISRDNAKNTVYLQMNSLKPEDTAVYYCAARGISPQEMYYWGQGTQVTVSS | high polyreactivity
QVTLVESGGGLVQAGGSLRLSCAASGSIRGYALGWSRQPPGKDRALVAAMSWRGGSTYYADSVKGRFTISRDNAKNTVYLQMNSLKPEETAVYYCAVEYVYWLSWYFQYDYWGQGTQVTVSS | low polyreactivity
QVQLVESGGGLVQAGGSRRLSCAASGRVFFNNAMGWYRQAPGKDREWVAGITSGSSTNYADSVKGRFTISRDNAKNTVYLQMNSLKPEYTAVDYCNKAPSWWDVRVPFDYWGQGTQVTVSS | low polyreactivity
QVQLVESGGGLVQAGGSLRLSCAASGFIFYEYAMGWYRQATGKERELVAAITYSAGSTYYADSVKGRFTISRDNAKNTVYLQMNSLKPEDTAVYFCAKVDSEYRQVIQQEDDYWGQGTQVTVSS | low polyreactivity
QVQLVESGGGLVQAGGSLRLSCAASGRTFDYYTMGWYRQAPGKERELVAAISWSGSTTYYADSVKGRFTISRDNAKNTVSLQMNSLKPEDTAVYYCAKSYRFPSVGPPGELDYWGQGTQVTVSS | high polyreactivity
QVQLVESGGGLVQAGGSLRLSCAASGLTIVNYAMGWYRQAPGKERELVAAITVNGGRTYYADSVKGRFTISRDNAKNTVYLQMNSLKPEDTAVYYCAAVYYRHWYTYSSDYWGQGTQVTVSS | high polyreactivity
QVQLVESGGGLVQAGGSLRLSCAASGSIFKGNVMGWYRQAPGKERELVAAITWSGGSTYYADSVKGRFTISRDNAKNTVYLQMNSLKPEDTAVYYCNTDRYHRVDFDYWGQGTQVTVSS | high polyreactivity
QVQLVESGGGLVQAGGSLRLSCAASGSIFPYYAMGWYRQAPGQEREFVASISSVTSTYADSVKGRFTISRDNAKNTVYLQMNSQKPEDPAVYYCAADRAYSWYSVSRYNYWGQGTQVTVSS | low polyreactivity

Sequence | polyreactivity (PSR sort gate)
QVQLVESGGGLVQAGGSLRLSCAASGRTFARNAMGRYRQAPVKERELVAVISKGGSRTYYADSVKGRFTISRDNEKNTVYLQMNSLKPEDTAVYYCAARHYVTRDESYDYWGQVTQVTVSS | high polyreactivity
QVQLVESGGGLVQAGGSLRLSCAASGSISKSYAMGWYRQAPGKERELVAVITSGGNTYYADSVKGRFTISRDNAKNTVYLQMNSLKPEDTAVYYCAADYHWYTEDDYWGQGTQVTVSS | high polyreactivity
QVQLVESGGGLVQAGGSLRLSSAASGRIFNIYAMGWYRQAPGKERELVARITSGGRTNYADSVKGRFTISRDNAKNTVYLQRNSLKPEDTAVYYCAARTYGQRGDYWGQGTQVTVSS | high polyreactivity
QVQLVESGGGLVQAGGSLRLSCAASGSTFRRYAMGWYRQAPGKERELVAAITGSGGRTYYADSVKGRFTISRDNAKNTVYLQMNSLKPEDTAVYYCAKDSYTRPRGYDYWGQGTQVTVSS | high polyreactivity
QVQLVESGGGLVQAGGSLRLSCAASGRIFNRNAMGWYRQAPGKERELVASISSGGRTNYADSVTGRFTISRDNAKNTDYLQMNSLKPEDTAVYYCAAKSPRILLDYWGQGTQVTVSS | low polyreactivity
QVQLVESAGVLVQAGGSLRFSCAPSGIIFPQYAMGWYRQAPGKARELVAAITYSGDGTYYADSVKGRFTISRDNAKYTVYLLMYSLKPDDTAVYYCAAFPRDPYKEYDYWGQGTQLTVSS | low polyreactivity
QVHLVESGGGLVQAGGSLRLSCDASGSTFLSNAMGWYRQAPGKERELVAAITTSGTSTFYADSVKGRFTISRDTAKNTVYLQMNSLKPEDTAVYCAKDYLPYLHFVAPSTGDYDYWGQGTQVTVSS | low polyreactivity
QVQLVESGGGLVQAGGSLRLSCAASGSIFWYYAMGWYRQAPGKERELVADITSTGGSTYYADSVKGRFTISRDNAKNTVYLQMNSLKPEDTAVYYCAADNTYSEEDYWGQGTQVNVSS | high polyreactivity
QVQLEESGGGLVQAGGSLRLSCAASGLTFRSYAMGWYRQAPGTEREFVAAITGSGDTTYYAVSVKGRFTISRDNALNTVYLQMNSLNPEETAGYYCNADRDYLWITLYEYWGQGTQLTVSS | high polyreactivity
QVQLVESGGGLVQEGCSLRLSCAPSGIIFGVNAMGLYRQAPAKERELVAVITWSGGSTYYADSVKGRFTISRDNAKNTVYLQMNSLKPEDTAVYYCNADSSASTIDRQGEYYYLGQGTQVTVSS | low polyreactivity
QVQLVESGGGLVQAGGSLRLSCAASGGTFLGNAMGWYRQAPGKERELVADITSGGSTNYADSVKGRFTITRDNAKNTVYLQMNSLKPEDTAVYYCNARWWFQLYYYSTFAGYNYWGQGTQVTVSS | low polyreactivity
QVQLVESGGGLVQAGGSLRLSCAASGIIFINYVMGWYRQAPGKESELVAAITGSGSSTYYADSVKGRFTISRDNAKNTVYLQMNSLKPEDTAVYYCAADNPRVRFLYYYWGQGTQVTVSS | high polyreactivity
QVQLVESGGGLVQAGGSLRLSCAASGFTFDKYAMGWYRQAPGKESELVAAISRGGGTKYADSVKGRFTISRDNAKNTVYLQMNSLKPEDTAVYYCVAKFRPDLSRGAYEYWGQGTQVTVSS | high polyreactivity
QVQLVESGGRLVQAGGSLRLSCAASGRILPGNAMGWYRQAPGKEREFVAAISYSGGRTYYADSVKGRFTISRDNAKNNVYLQMNSLKPEDTAVYSCAARSYGSAYYYWGQGTQVTVSS | high polyreactivity
QVQLVESGGGLVQAGGSLRLSCAASGNIFSDNAMGWYRQAPGKESELVAAITSGGSTNYADSVKGRFTISRDNAKNTVYLQMNSLKPEDTAVYYCAADISYRHFLFDYWGQGTQVTVSS | low polyreactivity
